Laboratory results as given in patent US20050100554A1 (published 2005).

Experiments:
GPRK5 = molecular target: T1, GPRK5 (human, UniProt P34947 1-590); assay: Y2H; INT ID 27
T1 construct: also called cbe_2541164

nucleoporin 214 kDa = molecular target: T2, nucleoporin 214 kDa (human, UniProt P35658 2-2090); assay: Y2H; INT ID 29
T2 construct: also called NUP214; cbe_3590661

[1] = molecular target: T3, rho/rac guanine nucleotide exchange factor (GEF) 2 (human, UniProt Q92974 28-986); assay: Y2H; INT ID 30
T3 construct: also called ARHGEF2; cbe_3694420
T3 sequence: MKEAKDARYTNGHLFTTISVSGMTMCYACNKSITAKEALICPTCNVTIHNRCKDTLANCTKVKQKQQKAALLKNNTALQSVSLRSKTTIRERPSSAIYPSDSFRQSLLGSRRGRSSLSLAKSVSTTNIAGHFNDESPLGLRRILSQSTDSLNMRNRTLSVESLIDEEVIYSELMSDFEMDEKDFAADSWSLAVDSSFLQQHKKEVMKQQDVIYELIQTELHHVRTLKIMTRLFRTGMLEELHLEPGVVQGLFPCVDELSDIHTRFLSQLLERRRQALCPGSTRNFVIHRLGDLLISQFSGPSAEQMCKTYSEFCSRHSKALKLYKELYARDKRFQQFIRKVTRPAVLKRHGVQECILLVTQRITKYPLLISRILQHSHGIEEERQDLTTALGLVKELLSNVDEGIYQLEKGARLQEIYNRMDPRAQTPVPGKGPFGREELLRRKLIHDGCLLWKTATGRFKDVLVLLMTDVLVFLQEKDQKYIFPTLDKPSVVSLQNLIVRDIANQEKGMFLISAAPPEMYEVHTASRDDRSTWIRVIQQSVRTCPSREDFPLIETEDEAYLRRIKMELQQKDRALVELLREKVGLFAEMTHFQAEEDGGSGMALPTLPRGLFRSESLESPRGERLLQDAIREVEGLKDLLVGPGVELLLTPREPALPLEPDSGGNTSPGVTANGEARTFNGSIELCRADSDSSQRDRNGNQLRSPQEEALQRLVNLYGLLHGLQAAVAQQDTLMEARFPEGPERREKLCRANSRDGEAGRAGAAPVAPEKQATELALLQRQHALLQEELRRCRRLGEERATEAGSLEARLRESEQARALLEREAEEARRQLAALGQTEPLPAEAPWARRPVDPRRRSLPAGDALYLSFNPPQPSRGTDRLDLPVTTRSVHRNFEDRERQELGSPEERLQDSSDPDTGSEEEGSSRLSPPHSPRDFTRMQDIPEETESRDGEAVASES

CD164 = molecular target: T4, CD164 (human, UniProt Q04900 24-197); assay: Y2H; INT ID 31
T4 construct: also called cbe_3929669

MAPK9 = molecular target: T5, MAPK9 (human, UniProt P45984 1-424); assay: Y2H; INT ID 32
T5 construct: also called cbe_4175362

Measured: binding result

T4 sequence (Q04900 24-197 limits assumed): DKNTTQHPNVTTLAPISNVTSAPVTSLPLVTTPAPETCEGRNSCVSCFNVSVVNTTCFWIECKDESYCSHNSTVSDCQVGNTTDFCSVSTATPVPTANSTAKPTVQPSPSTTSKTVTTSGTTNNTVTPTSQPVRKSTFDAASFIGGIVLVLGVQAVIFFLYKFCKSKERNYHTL
T1 sequence (P34947 whole entry): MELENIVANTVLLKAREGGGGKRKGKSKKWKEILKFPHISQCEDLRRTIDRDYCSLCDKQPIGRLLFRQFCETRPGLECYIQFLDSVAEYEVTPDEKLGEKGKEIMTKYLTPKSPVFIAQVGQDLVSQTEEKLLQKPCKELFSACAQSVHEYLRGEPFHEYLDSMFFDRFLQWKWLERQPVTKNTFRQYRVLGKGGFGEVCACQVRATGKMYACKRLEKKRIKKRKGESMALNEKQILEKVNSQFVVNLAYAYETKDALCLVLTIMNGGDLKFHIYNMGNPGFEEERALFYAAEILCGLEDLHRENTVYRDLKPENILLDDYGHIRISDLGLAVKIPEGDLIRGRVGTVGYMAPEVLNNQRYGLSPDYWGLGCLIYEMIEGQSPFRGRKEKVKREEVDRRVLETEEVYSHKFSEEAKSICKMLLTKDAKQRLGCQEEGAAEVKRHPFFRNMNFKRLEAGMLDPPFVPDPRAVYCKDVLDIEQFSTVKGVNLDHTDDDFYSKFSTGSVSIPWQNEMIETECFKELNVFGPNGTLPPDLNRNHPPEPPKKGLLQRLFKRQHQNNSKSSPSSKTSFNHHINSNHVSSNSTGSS
T2 sequence (P35658 2-2090 limits assumed): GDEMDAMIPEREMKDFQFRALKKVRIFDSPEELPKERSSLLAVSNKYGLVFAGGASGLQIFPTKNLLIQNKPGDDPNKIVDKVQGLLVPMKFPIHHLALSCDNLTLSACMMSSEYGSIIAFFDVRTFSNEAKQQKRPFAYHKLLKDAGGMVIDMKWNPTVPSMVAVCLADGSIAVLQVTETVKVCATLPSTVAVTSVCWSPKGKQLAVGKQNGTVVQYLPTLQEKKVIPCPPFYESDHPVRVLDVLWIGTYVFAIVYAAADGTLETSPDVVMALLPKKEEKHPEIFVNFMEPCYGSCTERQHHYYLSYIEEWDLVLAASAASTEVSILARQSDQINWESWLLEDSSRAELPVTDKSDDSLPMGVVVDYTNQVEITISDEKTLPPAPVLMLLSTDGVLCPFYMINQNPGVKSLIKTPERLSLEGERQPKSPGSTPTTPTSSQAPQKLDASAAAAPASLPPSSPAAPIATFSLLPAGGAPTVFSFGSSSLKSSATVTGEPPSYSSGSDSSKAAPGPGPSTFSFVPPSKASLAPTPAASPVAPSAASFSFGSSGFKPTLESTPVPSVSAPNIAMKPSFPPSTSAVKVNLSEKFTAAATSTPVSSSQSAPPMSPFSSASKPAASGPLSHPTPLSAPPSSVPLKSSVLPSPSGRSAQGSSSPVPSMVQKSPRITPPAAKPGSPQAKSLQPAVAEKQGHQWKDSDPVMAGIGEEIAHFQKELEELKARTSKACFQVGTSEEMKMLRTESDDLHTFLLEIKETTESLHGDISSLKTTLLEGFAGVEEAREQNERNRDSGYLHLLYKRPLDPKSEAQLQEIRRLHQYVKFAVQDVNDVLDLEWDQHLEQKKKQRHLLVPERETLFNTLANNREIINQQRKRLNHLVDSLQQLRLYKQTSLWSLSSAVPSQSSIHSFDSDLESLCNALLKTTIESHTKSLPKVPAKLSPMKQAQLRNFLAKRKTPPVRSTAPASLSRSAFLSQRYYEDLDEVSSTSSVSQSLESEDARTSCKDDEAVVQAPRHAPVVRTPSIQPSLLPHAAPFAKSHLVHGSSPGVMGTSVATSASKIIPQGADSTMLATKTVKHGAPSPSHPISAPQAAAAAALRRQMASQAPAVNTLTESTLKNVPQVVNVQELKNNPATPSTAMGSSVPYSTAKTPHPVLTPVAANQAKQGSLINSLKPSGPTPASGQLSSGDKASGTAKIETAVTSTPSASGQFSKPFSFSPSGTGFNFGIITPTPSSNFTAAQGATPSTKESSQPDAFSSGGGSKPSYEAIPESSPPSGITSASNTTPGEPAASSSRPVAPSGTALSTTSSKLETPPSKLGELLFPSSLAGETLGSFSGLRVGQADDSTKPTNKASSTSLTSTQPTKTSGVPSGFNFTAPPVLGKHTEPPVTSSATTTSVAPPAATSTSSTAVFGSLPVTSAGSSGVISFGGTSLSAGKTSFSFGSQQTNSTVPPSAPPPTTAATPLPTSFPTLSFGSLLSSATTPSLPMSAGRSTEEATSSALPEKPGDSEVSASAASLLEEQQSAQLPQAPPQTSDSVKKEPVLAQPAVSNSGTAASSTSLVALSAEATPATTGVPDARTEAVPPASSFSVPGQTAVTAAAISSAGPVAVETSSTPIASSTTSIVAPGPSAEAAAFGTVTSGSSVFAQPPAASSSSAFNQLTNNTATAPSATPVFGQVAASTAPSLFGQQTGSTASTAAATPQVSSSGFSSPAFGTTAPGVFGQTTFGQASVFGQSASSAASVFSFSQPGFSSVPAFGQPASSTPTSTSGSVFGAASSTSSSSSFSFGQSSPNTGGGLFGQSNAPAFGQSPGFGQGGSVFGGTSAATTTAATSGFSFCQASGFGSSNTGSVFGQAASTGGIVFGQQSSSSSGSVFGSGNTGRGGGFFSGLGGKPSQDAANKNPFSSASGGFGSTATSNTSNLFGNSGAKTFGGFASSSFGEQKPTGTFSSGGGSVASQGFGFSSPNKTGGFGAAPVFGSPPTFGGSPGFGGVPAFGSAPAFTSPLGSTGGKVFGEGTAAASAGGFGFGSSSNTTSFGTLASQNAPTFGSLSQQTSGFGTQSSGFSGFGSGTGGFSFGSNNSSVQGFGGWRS

B1: Human papillomavirus 11 E6 (other)
chain: MESKDASTSATSIDQLCKTFNLSLHTLQIQCVFCRNALTTAEIYAYAYKNLKVVWRDNFPFAACACCLELQGKINQYRHFNYAAYAPTVEEETNEDILKVLIRCYLCHKPLCEIEKLKHILGKARFIKLNNQWKGRCLHCWTTCMEDLLP
notes: also called HPV 11 E6; cbe_250808
binds: all assays above
